Measurements as given in PMC5651819, “AtSPX1 affects the AtPHR1–DNA-binding equilibrium by binding monomeric AtPHR1 in solution” (Biochemical Journal, 2017).

Target: MBP-AtdPHR1 (Arabidopsis thaliana) (UniProt Q94CL7)
Test: SPR
Details: SPR (Biacore 3000, SA chip, ~500 RU DNA): 10 mM HEPES pH 7.5, 200 mM NaCl, 0.01% Surfactant P-20, 25 C, 40 ul/min, with or without Pi/InsP6

Sequence of MBP-AtdPHR1 (Arabidopsis thaliana) (Q94CL7 208-362): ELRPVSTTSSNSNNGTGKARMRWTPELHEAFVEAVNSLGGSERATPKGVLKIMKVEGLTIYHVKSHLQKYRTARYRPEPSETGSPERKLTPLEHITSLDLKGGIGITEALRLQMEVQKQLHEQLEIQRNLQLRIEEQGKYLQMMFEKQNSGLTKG

Q: Which Kd does the source give for “ACACTTCGTCACGCTAAAGCTAAGCATATCCGCTTTCATATTCCTTTACACAAC (double strand) [1x P1BS probe]” here?
A: The Kd was 707 nM.
